Assays:
RBBR dye decoloration = details: 0.02% RBBR, 8 U enzyme, 20° C., 1 h, pH 3.0
Procedure: Dye decoloration reaction was performed by mixing a partially purified laccase broth (containing 8 U enzyme) with a 1 ml reaction buffer (50 mM citric acid solution; pH 3.0) containing 0.02% RBBR (Sigma). The mixture was incubated at 20° C. for 1 h. Dye decoloration was determined by monitoring the change in absorbance at 595 nm and the dye decoloration efficiency (%) was defined as the relative amount of dye reduced after the treatment.
(§1) The lignin degradation reaction and the dye decoloration reaction were carried out following the methods described in Example 1 above. […] See FIG. 9, pane A. The lignin degradation efficiencies were 22%-25% at 40-50° C. for 40 min and 32% at 40° C. for 60 min.

[1] = Thermal denaturation by differential scanning calorimetry (DSC); assay type: physicochemical; details: 10 mM sodium phosphate buffer (pH 6.0)
Procedure: Thermal denaturation of laccase was determined by differential scanning calorimetry (DSC) using a Nano Differential Scanning calorimeter (N-DSC III) (TA Instruments, New Castle, Del.) at a heating rate of 1° C./min under a temperature from 30 to 95° C. and excess pressure of 3.0 atm. The protein concentration was 0.55 mg/ml in 10 mM sodium phosphate buffer (pH 6.0). Baseline corrections were performed and smoothed by subtracting a buffer thermogram. The data were then analyzed using the Launch NanoAnalyze Software (TA Instruments, New Castle, Del.), assuming a two-state unfolding model. See Pace et al., The Protein Structure: A Practical Approach; Creighton T. E., Ed.: IRL Press; Oxford U.K., pp. 311-330; 1989.

[2] = 2,6-DMP oxidation (laccase kinetics, optimum temperature and pH); assay type: biochemical; details: 2,6-DMP as substrate
Procedure: (§2) The effect of temperature on laccase activity was studied using the standard enzymatic activity assay described above under various reaction temperatures (i.e., 20-80° C.). For thermal stability study, the enzyme was pre-incubated in a 50 mM citric acid buffer (pH 3.0) at 50-80° C. for 0-180 min and the residual enzymatic activity was then determined.
(§3) The effect of pH on the laccase activity was investigated at a pH range of 2.5-6.0. Four buffer systems were used in this study: 50 mM glycine-HCl buffer (pH 2.5), 50 mM citric acid buffer (pH 3.0-5.5), 50 mM sodium phosphate buffer (pH 6.0-8.0), and 50 mM glycine-NaOH buffer (pH 9.0-10). To determine the protein stability of laccase at a wide range of pH conditions, the enzyme (0.1 mg/mL in each reaction) was pre-incubated at pH 3.0-10 at 25° C. for 0-5 days and then the residual enzyme activity was determined.
(§4) Kinetic parameters Km and Vmax were determined as follows. […] The oxidation reactions of guaiacol and 2,6-DMP were monitored by determining OD436 values (ε=6,400 M^−1cm^−1) and OD468 values (ε=49,600 M^−1 cm^−1), respectively. The kinetic parameters were determined by nonlinear regression analysis (ENZFITTER software program, Elsevier-Biosoft, Cambridge, UK) using the Michaelis-Menten model.
(§5) To determine the effect of temperature on the enzyme activity, a standard enzymatic activity assay was performed under various temperatures (i.e., 30-90° C.). For thermal stability study, laccase was pre-incubated in a 50 mM citric acid buffer (pH 3.0) at 30-80° C. for 10-40 min and the residual enzymatic activity was then determined by the standard assay. See Example 1 above. Values of t1/2 were determined accordingly.
(§6) The effect of pH on laccase activity was investigated at pH 2.0-6.0, using a glycine-HCl buffer (pH 2.0-2.5) or a citric acid buffer (pH 2.5-6.0). To determine protein stability in different pH conditions, the enzyme was pre-incubated at pH 2.5-4.5 at 25° C. for 0-2 h and the residual enzyme activity was determined by the standard enzymatic assay.
(§7) Kinetic parameters were determined following conventional methods. See also Example 1 above.

[3] = pH 3
Procedure: Lignin degradation reaction was carried out by mixing a crude laccase broth (containing 100 U enzyme) with 50 ml reaction buffer (50 mM citric acid solution; pH 3.0) containing 100 mg smashed rice straw materials. The mixture was incubated at 30-80° C. for 20-60 min. Sodium azide was added to the mixture at a final concentration of 1 mM to stop the enzymatic reaction. The processed rice straw was collected by filtration and dried at 60° C. The lignin contents in the rice straw before and after treatment were determined following the method described in kappa number of ISO 302:2004 (International Organization for Standardization).
as §1

[4] = ABTS oxidation assay (laccase activity, kinetics, effect of temperature and pH); assay type: biochemical
Procedure: All chemicals used in this study were obtained from Merck (Darmstadt, Germany) or Sigma-Aldrich (St. Louis, Mo. USA). All spectrophotometric measurements were performed using the Beckman DU 640 spectrophotometer (Beckman Coulter, USA).
as §2, §3, §4, §5, §6, §7

B1: Lcc3: laccase purified from Cerrena sp. WR1, GenBank accession no. GQ899203; SEQ ID NO:3 mature, 9 precursor (protein)
chain: AIGPVADLHITDANVSPDGFTRPAVLAGGTFPGPLITGKQGDNFQINVIDELTDATMLKSTSIHWHGIFQKGTNWADGPSFVNQCPITTGNSFLYDFSVPDQTGTYWYHSHLSTQYCDGLRGALVIYDDNDPHKDLYDVDDETTVITLADWYHTQARLITGVPVSDATLINGLGRYLNGPTDAPLAVITVDQGKRYRFRLVSISCDPNFVFSIDNHSMTVIEVDAVNSQPLVVDSIQIFAAQRYSFILNANQSVGNYWIRANPNLGNTGFTNGINSAILRYNGAPVAEPNTTQTASTNPLNEVNLHPLVPTPVPGTPQPGGVDVVQNLVLGFSGGKFTINGVAFSPPTVPVLLQILSGTTTAQDLLPTGSIIELPLGKTVELTLAAGVLGGPHPFHLHGHTFHVVRSAGQTTPNYVDPILRDTVNTGAAGDNVTIRFTTDNPGPWFLHCHIDWHLEAGFAVVFAEGLNQTNAANPTPDAWNNLCDLYNALPAGDQ
modifications: Cerrena sp
- decoloration efficiency against RBBR (RBBR dye decoloration): 70.1%
- midpoint temperature (Tm) [1]: 73.95 °C
- optimal temperature [2]: 70 °C
- pH of maximal activity [2]: 3.5
- Optimum temperature ([2]; at pH 3.5): 70 (at pH 3.5) ° C.
- Specific activity ([2]; optimum temperature and pH): 118.3 U/mg
- highest lignin degradation efficiency per 100 U [3]: around 22.9%
- optimal temperature ([4]; ABTS as substrate): 50 °C
- pH of maximal activity ([4]; ABTS as substrate): 3.0
- Optimum temperature ([4]; ABTS as substrate, at pH 3.0): 50 (at pH 3.0) ° C.
- Specific activity ([4]; ABTS as substrate, optimum temperature and pH): 1013.5 U/mg
- specific activity of the purified laccase ([4]; at 30° C. and pH 3.0, ABTS): 2,159.6 U/mg
